The text below walks through data of patent publication US20070015155A1 (published 2007).

In this test the target is T1, GST protein (UniProt P08515 1-218 = GST).
T1 construct: Control protein of the GST pull-down, on glutathione beads; also called protein consisting of the GST part alone; product of pGEX-6P-1
Kind of test: GST pull-down with 35S-labeled in vitro translated protein, SDS-PAGE, autoradiography. The protocol:
Using the protein GST-Cbl prepared above in (2), the presence or absence of the direct interaction of human and mouse CbAP40 proteins with the c-Cbl protein was confirmed by the GST-pull down method (Zikken Kougaku, Vol. 13, No. 6, 1994, p. 528, Matsushime, et al.). Using 0.5 μg of pcDNA-CbAP40 prepared above in Example 1(4) or pcDNA-mCbAP40 prepared above in Example 8(2) as a template, and additionally using 40 μl of TNT kit (TNT^R Quick Coupled Transcription/Translation System; Promega) and 1.3 MBq of a radioisotope (redivue Pro-mix L-[³⁵S]; Amersham) according to the attached protocol, human or mouse CbAP40 protein radioactively labeled was prepared by in vitro transcription and translation. Then, 15 μl each of the prepared solution of human or mouse CbAP40 protein was mixed with 1 μl of the GST protein or GST-Cbl purified on glutathione beads as described above in (2) to which 0.3 ml of Buffer A (50 mM Tris-HCl, pH 7.5, 10% glycerol, 120 mM NaCl, 1 mM EDTA, 0.1 mM EGTA, 0.5 mM PMSF, 0.5% NP-40) was added. The resulting mixture was shaken at 4° C. for one hour. Subsequently, the protein binding to the GST protein or GST-Cbl on the bead was co-precipitated by centrifugation. […] Consequently, a band never detected in mixing the GST protein was detected in case of mixing GST-Cbl.

T1 sequence (P08515 whole entry): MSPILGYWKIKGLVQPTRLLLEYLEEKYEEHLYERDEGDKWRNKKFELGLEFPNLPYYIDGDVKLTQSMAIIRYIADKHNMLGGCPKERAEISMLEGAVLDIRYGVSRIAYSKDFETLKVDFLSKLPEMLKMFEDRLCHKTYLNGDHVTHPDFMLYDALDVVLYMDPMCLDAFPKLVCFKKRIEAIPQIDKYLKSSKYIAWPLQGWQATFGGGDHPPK

B1: human CbAP40-V5-His6 fusion protein (other, not shown: small tags and cut ends)
chain: MMSSSWPGTSPRLSRGSGSCLTSGATGPCQADSSLKAGPGAGVFFLSSAEGEQISFLFDCIVRGISPTKGPFGLRPVLPDPSPPGPSTVEERVAQEALETLQLEKRLSLLSHAGRPGSGGDDRSLSSSSSEASHLDVSASSRLTAWPEQSSSSASTSQEGPRPAAAQAAGEAMVGASRPPPKPLRPRQLQEVGRQSSSDSGIATGSHSSYSSSLSSYAGSSLDVWRATDELGSLLSLPAAGAPEPSLCTCLPGTVEYQVPTSLRAHYDTPRSLCLAPRDHSPPSQGSPGNSAARDSGGQTSAGCPSGWLGTRRRGLVMEAPQGSEATLPGPAPGEPWEAGGPHAGPPPAFFSACPVCGGLKVNPPP
modifications: radioactively labeled by in vitro transcription and translation with redivue Pro-mix L-[35S]
notes: Made by in vitro transcription/translation (TNT kit) from pcDNA-CbAP40; 411 amino acids in total with the 45-residue C-terminal tag. 'mature' stands here for the full-length protein (no signal peptide is mentioned); also called human CbAP40 protein; Cbl associated protein 40
For B1, the binding result is listed as “no binding”.
